Source: patent publication US20100172907A1

How the values were obtained:
Assay in all cases: ELISA
[1] = target: BSA-conjugated Aβ heptapeptide VFFAEDC
[2] = target: BSA-conjugated Aβ heptapeptide LVFFAEC
[3] = target: BSA-conjugated Aβ heptapeptide AEFRHDC
[4] = target: BSA-conjugated Aβ heptapeptide FFAEDVC

Substance	OD ratio 18-23/BSA [1]	Peptide-ratio 18-23/2-7 [1]	OD ratio 17-22/BSA [2]	Peptide-ratio 17-22/2-7 [2]	OD ratio 2-7/BSA [3]	OD ratio 19-24/BSA [4]	Peptide-ratio 19-24/2-7 [4]
4G8 (antibody)	20	20	23	23	1	1	1
6E10 (antibody)	1	0.06	1	0.06	18	1	0.06
AMY-33 (antibody)	1	0.06	2	0.13	16	3	0.19
